Data reported in the supplement of paper PMC12764529.
± gives the half width of the 95% confidence interval.

Columns and labels:
[1] = folding stability dG unfold from chymotrypsin proteolysis; higher = more stable
Summary of the method: (§1)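 How resistant each design was to proteolysis was captured as K50, inferred by Bayesian fitting of sequencing counts. Unfolding free energy was then derived relative to a sequence-predicted unfolded-state K50 and a shared folded-state K50, per protease or combined. Digestion used trypsin and chymotrypsin at 11 threefold-diluted concentrations plus a no-protease condition, on mini-proteins under 80 residues without cysteine in a PA-tagged cDNA display construct. Designs were kept only when AlphaFold2 dimer inter-PAE was above 15.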

[2] = folding stability dG unfold (combined trypsin and chymotrypsin); higher = more stable
Summary of the method: as §1

[3] = folding stability dG unfold from trypsin proteolysis; higher = more stable
Summary of the method: as §1

Sequence	folding stability dG unfold [1]	folding stability dG unfold [2]	folding stability dG unfold [3]
SLPPSLTYTLKLSHPDGSTVTATVFPGGSLRVTVYAPGGVKVAESEYPVDDLEALMKALGIKEVLSMELASA [r9_1107_JUSTAS]	11.9 ± 0.297 kJ/mol	11.2 ± 0.544 kJ/mol	8.07 ± 0.343 kJ/mol
SMEEAIEEAIKKNEEAIAAGGGPVKVELEVPGYRIDLTFSPNGLKITNIEEKNSPDGIPSVKSTSDVPPPSA [r9_308_JUSTAS]	-2.11 ± 0.46 kJ/mol	1.19 ± 0.586 kJ/mol	3.54 ± 0.356 kJ/mol
SMEIKIEITYDKDTNYLVIKVTIKLKTKTVDKKTKKVTEKEEEITLTLVIKLKPLKPGQKLKLEIKLFPESA [r9_1058_TrROS_Hall]	20.6 ± 1.38 kJ/mol	18.4 ± 1.84 kJ/mol	13.6 ± 0.92 kJ/mol
SMEILEMDIEEILSLLPEDIHPDVPYTLTVPGLEIRILDVAPVREEEGGPRPTTVIEVFLPDGPVVFPLESA [r9_279_TrMRF]	5.28 ± 0.289 kJ/mol	4.65 ± 0.502 kJ/mol	3.65 ± 0.176 kJ/mol
SMEPGERYRITATRKDGSRVEVEAIPGGVLRARVYLPNGELVGEAEFPVDRPVELLEALGLDELVSVEPESA [r9_1107_TrMRF]	10.1 ± 0.18 kJ/mol	9.71 ± 0.36 kJ/mol	9.08 ± 0.213 kJ/mol
SMFRIRFKDGSEFDIELNEDGELTITNKNGKKITLTFKTKEEALKAAEELKKKYPNMKVEIEEVSPEELKSA [r9_1206_TrROS_Hall]	14.66 ± 0.0669 kJ/mol	13.1 ± 0.502 kJ/mol	10.9 ± 0.247 kJ/mol
SMFRPFPLPDGRPAYDFIIPGLELASSFFPETGRPVLVLRPGGRLGAAPLFAADLDVLFSRPPLVAVEPDSA [r9_205_TrMRF]	5.73 ± 0.711 kJ/mol	4.18 ± 0.586 kJ/mol	2.65 ± 0.46 kJ/mol
SMGSITITLPATPEELRELLREKGISPELAPSWEEVKEALKKAFPKNVTVTINPKSPVSEEAAKAAREGSSA [r9_74_JUSTAS]	6.08 ± 0.0711 kJ/mol	4.75 ± 0.268 kJ/mol	1.93 ± 0.159 kJ/mol
SMGSTTVTVELEFEVEDPSVFPPDTTVDVPEEVIEKLRAEGYTVTEITTTVEPTPSGRVRVRVTMTVRVDSA [r9_465_JUSTAS]	11.6 ± 0.205 kJ/mol	12.3 ± 0.397 kJ/mol	12.3 ± 0.209 kJ/mol
SMIEELSDEEKVALAKELAEEIKKAREGGKPEEIPELIKRLKEVLEAASPPVQEEVLALIKEIKIPPKELSA [r9_182_JUSTAS]	7.1 ± 0.167 kJ/mol	9.33 ± 0.318 kJ/mol	11.8 ± 0.272 kJ/mol
SMIKPGEKIKKIKLKLENGEEVEATLVKNEDGSLVLFIKVDGEVYVFTFNPDGEIKIEKVSKEEAEKLLKSA [r9_1144_TrROS_Hall]	15.8 ± 0.192 kJ/mol	14.2 ± 0.628 kJ/mol	8.57 ± 0.406 kJ/mol
SMITLELTDPATGAKYTLTIDPSTGKAKVTRTPPTGPPVSGTGTIEGNTLTITLYEPSGKPLATLTLPLPSA [r9_665_JUSTAS]	23.1 ± 0.418 kJ/mol	23.4 ± 0.544 kJ/mol	16.3 ± 0.46 kJ/mol
SMKEGIEAAIDELKEALEKGEGEVRVVLRFEGFVLEITIKPKGYKIEDIEIEPLPDDIPFIREREEVPPESA [r9_308_TrMRF]	6.59 ± 0.795 kJ/mol	6.34 ± 1 kJ/mol	5.16 ± 0.213 kJ/mol
SMKEKALEKAKEKAEEIKKKYSNVKVKVEVKVEITPKGEIKITYKVVIEKPEKEKPYWVKYPNGPWKKIGSA [r9_82_JUSTAS]	7.8 ± 2.26 kJ/mol	6.27 ± 2.3 kJ/mol	5.03 ± 1 kJ/mol
SMKELVKRIAERFPNFKVKIKPEKTGGKKYRTVRIENPDSGRDMEIVFTKNGDIQIEMPNGRRIPLEDILSA [r9_1176_TrROS]	4.61 ± 0.322 kJ/mol	5.7 ± 0.247 kJ/mol	6.09 ± 0.0753 kJ/mol
SMKEVEKREFPDGTTVTFSKSSSPVITIKVTTYSPVPNTSELSSSESTYTFPLPPGKPLTLEEVLKKVLESA [r9_614_JUSTAS]	5.78 ± 0.879 kJ/mol	4.26 ± 0.544 kJ/mol	2.26 ± 0.146 kJ/mol

Sequence	folding stability dG unfold [1]	folding stability dG unfold [2]	folding stability dG unfold [3]
SMKFTITLSNPVDGTTETIPLDVPLEELVKIIKEAHEKGGTVTITGLPEELAKEIAEKSGLDVSINPAPGSA [r9_1207_JUSTAS]	10.8 ± 0.222 kJ/mol	11.9 ± 0.586 kJ/mol	13.1 ± 0.586 kJ/mol
SMKIEFLDVKEDGTIVIRLTLLRPDGKPPTKEEAAERAKEIAEILKPYFPDAEFTIEFDPESGEATIVIDSA [r9_485_TrMRF]	19.7 ± 0.628 kJ/mol	20.2 ± 1.38 kJ/mol	19.5 ± 2.38 kJ/mol
SMKIIIEIEVEPGKTEEEIKEEAEALAKELAKKLGLPKEAKVKIEKVKLEDGKLRYIITIEVDGKTIEFESA [r9_776_TrROS_Hall]	15.2 ± 0.268 kJ/mol	15.7 ± 1 kJ/mol	15.6 ± 1.21 kJ/mol
SMKIKSIKIEPIRIGDEEYFLIPIEVDGEEIPPEEVKRLVEELFEKLGLPLDPVLLEDPESDIVLVLARGSA [r9_717_TrMRF]	5.62 ± 0.46 kJ/mol	6.17 ± 0.669 kJ/mol	7.61 ± 0.222 kJ/mol
SMKITATETPVGDKTTVTITVTIDPKEFPNKPPTEEFYKKIAEELMKKLGLKTYNISKTSSNTYTITIVDSA [r9_883_JUSTAS]	10.4 ± 0.105 kJ/mol	10.4 ± 0.205 kJ/mol	10.1 ± 0.255 kJ/mol
SMKITIVENEDGSLKIKVYFKDTGKVVEKTFEKGETIEEQVKKLAEELEKELGLEVVDVEIVKLPPPEKPSA [r9_1205_TrROS_Hall]	15.6 ± 0.402 kJ/mol	15 ± 0.502 kJ/mol	11 ± 0.962 kJ/mol
SMKITLEKGNYKIEIYKHPETGEIIAKVYDKNGKLVAVAHIKIEVEPDKDGKKIIKKIEIHVHILKEDPKSA [r9_262_TrMRF]	15.8 ± 0.46 kJ/mol	12.6 ± 1.3 kJ/mol	10.8 ± 0.92 kJ/mol
SMKKILIIVPKEMSEEEVEALVKELLEKLGLPEGAEVEILTEEELEKNPELKKKLEEAEKKGADLVIIIPSA [r9_1147_TrROS_Hall]	12.6 ± 0.837 kJ/mol	13.1 ± 1.34 kJ/mol	14.2 ± 1.34 kJ/mol
SMKKIVLIYPESVSPEEAEKIAEEILKKLGLKKGSPVTILPLSEYESNPEMRARIEEAKKKGADIIIEVKSA [r9_1147_JUSTAS]	11.7 ± 0.418 kJ/mol	11.6 ± 0.711 kJ/mol	12.2 ± 0.628 kJ/mol
SMKKNTLTLTVKVKVTVTVVKKKKDGKEEVVKKETVEVTVKVTFLSKEELEKLKKELEKLKKELEELKKKSA [r9_1192_TrROS_Hall]	19.7 ± 1.13 kJ/mol	14.2 ± 3.14 kJ/mol	11.4 ± 1.13 kJ/mol
SMKKNYKIKIEIIDIKIYNKNIPKNKPKYITIKAKITIYYKNKPYKYTIEIKYKIYNGKIYIIGSKIKPESA [r9_270_TrMRF]	15.74 ± 0.105 kJ/mol	15.3 ± 0.46 kJ/mol	14.1 ± 0.418 kJ/mol
SMKKPIDLIKKLGYTLTSVTKLPNGTTLITFEHPDSTVTVTVNPDGNIKITTTNPKNGTTTTTTIPVNKLSA [r9_2_JUSTAS]	9.67 ± 0.414 kJ/mol	8.71 ± 0.628 kJ/mol	8.17 ± 0.335 kJ/mol
SMKMSPEEKLKELAKELAEKLEEETGKKVKVRVTVEYNGKTFEIEIEEGETIEDIRNKFPGLKIKVEIEPSA [r9_513_TrROS_Hall]	0.0415 ± 0.92 kJ/mol	4.53 ± 1.72 kJ/mol	5.59 ± 0.711 kJ/mol
SMKPGAEITIEPFPDGMYKITLPDGRERIFSPNGIAIEITPNKIKIEMFHPGKPIMEMEVEIPPPDPNDPSA [r9_901_TrROS]	3.23 ± 0.669 kJ/mol	4.13 ± 1.8 kJ/mol	3.82 ± 0.795 kJ/mol
SMKPGDTVIVKIEIEKKVDGKTVKKTIEKEIKIKPGETVEIELKGLPKGAKVRVEIFNADGKLIEEKELPSA [r9_478_TrROS_Hall]	6.12 ± 0.176 kJ/mol	7.53 ± 0.335 kJ/mol	9.32 ± 0.314 kJ/mol
